{
  "source": "paper PMC4461284",
  "about": "“Different Modes of Transactivation of Bacteriophage Mu Late Promoters by Transcription Factor C”",
  "molecular_target": "RNA polymerase (RNAP), WT (E. coli, UniProt P0A7Z4;P0A8V2;P0A8T7;P0A800;P00579 1-329;1-1342;1-1407;2-91;1-613)",
  "test": "EMSA; no C protein; on ice (closed complex); EMSA: on ice 10 min, 3.5% native PAGE at 4 C; binding buffer not stated (transcription buffer: 40 mM Tris-Cl pH 8.0, 5 mM Mg acetate, 0.1 mM EDTA, 0.1 mM DTT, 100 mM KCl, 100 ug/ml BSA)",
  "conditions": "protein: recombinant, (Ni-NTA purified), chain copies: 2;1;1;1;1, label: 5' 32P",
  "key": {"[1]": {"conditions": "5' overhangs 4 nt (EcoRI AATT / BamHI GATC)"}},
  "data": [
    {"binder": "I promoter 92mer (dsDNA) DNA 1: AATTCTTTCTTTCTCCAGTACTCAAATAGCATAACCCCAGATTTTCCCGCACCTCCCGCAAACTGACTGCTCACAAACCATGATGAGCAGCGG DNA 2: GATCCCGCTGCTCATCATGGTTTGTGAGCAGTCAGTTTGCGGGAGGTGCGGGAAAATCTGGGGTTATGCTATTTGAGTACTGGAGAAAGAAAG", "values": [
      {"measurement": "binding result", "setting": "[1]", "value": "binds"}
    ]},
    {"binder": "P promoter 92mer (dsDNA) DNA 1: AATTCACAGGGACAGTTACAGTTAACTGCCATAACCCCGGACGGCGGCTTTTCACAGGTATCCTTTTCAGACAGTGGTACAGCCACGCCCCG DNA 2: GATCCGGGGCGTGGCTGTACCACTGTCTGAAAAGGATACCTGTGAAAAGCCGCCGTCCGGGGTTATGGCAGTTAACTGTAACTGTCCCTGTG", "values": [
      {"measurement": "binding result", "setting": "[1]", "value": "binds"}
    ]},
    {"binder": "tin7 P2-disrupted promoter 78mer (dsDNA) DNA 1: AATTCCGGTTGCGCCCCAATAACCACACTCAACCCATGATGTTTGTTAAGATAGTGGCGAATTGATGCAAAGGAGGTG DNA 2: GATCCACCTCCTTTGCATCAATTCGCCACTATCTTAACAAACATCATGGGTTGAGTGTGTGGTTATTGGGGCGCAACCGGG", "values": [
      {"measurement": "binding result", "setting": "5' overhangs (EcoRI AATT / BamHI GATC)", "value": "binds"}
    ]},
    {"binder": "lys promoter 92mer (dsDNA) DNA 1: AATTCATCCTGCCGGTTATTTCCTGTCACCATAATCCCGCACCTGCCACCTGATTTTTTAGACTGCCATCAGAGAATTTTTTCAGGGAAGCG DNA 2: GATCCGCTTCCCTGAAAAAATTCTCTGATGGCAGTCTAAAAAATCAGGTGGCAGGTGCGGGATTATGGTGACAGGAAATAACCGGCAGGATG", "values": [
      {"measurement": "binding result", "setting": "[1]", "value": "binds"}
    ]}
  ]
}
